Reference: patent US20050037969A1 (ARBOR VITA, published 2005)
Ends that are not written are not given here. * marks the point of attachment. Biotin = O=C1N[C@H]2[C@H](CS[C@H]2CCCCC(=O)*)N1

How the values were obtained:
Experiment in all cases: A/G assays
[1] = molecular target: T1, GEF PDZ-GST fusion protein (Homo sapiens (Human), UniProt Q8TEU7 293-400)
T1 construct: The label GEF is not explained in the excerpts
T1 sequence: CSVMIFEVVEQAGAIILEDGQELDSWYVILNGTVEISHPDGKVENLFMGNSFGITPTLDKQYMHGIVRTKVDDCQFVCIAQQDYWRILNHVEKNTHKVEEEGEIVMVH

[2] = molecular target: T2, TAX-IP2L PDZ-GST fusion protein (Homo sapiens (Human), UniProt Q8TF64 107-197)
T2 construct: Order of GST and PDZ part and limits not seen in the excerpts
T2 sequence: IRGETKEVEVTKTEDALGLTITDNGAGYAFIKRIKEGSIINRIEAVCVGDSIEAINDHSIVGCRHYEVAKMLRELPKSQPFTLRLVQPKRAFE

[3] = molecular target: T3, K858 PDZ-GST fusion protein (Homo sapiens (Human), UniProt Q8WWI1 1038-1131)
T3 construct: Order of GST and PDZ part and limits not seen in the excerpts
T3 sequence: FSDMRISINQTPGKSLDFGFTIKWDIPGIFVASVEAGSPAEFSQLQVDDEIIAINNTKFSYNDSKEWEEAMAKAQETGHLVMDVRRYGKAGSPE

[4] = molecular target: T4, ConEn PDZ-GST fusion protein (Homo sapiens (Human), UniProt Q969H4 193-287)
T4 construct: The label ConEn is not explained in the excerpts
T4 sequence: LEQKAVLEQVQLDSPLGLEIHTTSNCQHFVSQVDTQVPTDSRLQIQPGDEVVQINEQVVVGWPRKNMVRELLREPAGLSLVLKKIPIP

[5] = molecular target: T5, GST-prIL16 fusion protein (PDZ domains 1-2) (Homo sapiens (Human), UniProt Q14005 1111-1324)
T5 construct: also called putative interleukin 16 precursor; not shown: glutathione S-transferase encoded by vector pGEX-3X (Pharmacia)
T5 sequence: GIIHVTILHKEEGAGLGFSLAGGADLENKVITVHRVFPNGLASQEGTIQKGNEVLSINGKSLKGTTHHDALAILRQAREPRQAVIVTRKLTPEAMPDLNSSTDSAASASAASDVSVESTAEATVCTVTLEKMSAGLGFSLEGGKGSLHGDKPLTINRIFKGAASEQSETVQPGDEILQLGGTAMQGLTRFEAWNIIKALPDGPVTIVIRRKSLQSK

[6] = molecular target: T6, GST-TAX-IP43 PDZ domain fusion protein (human, UniProt Q13884 109-180)
T6 construct: also called TAX43; not shown: glutathione S-transferase encoded by vector pGEX-3X (Pharmacia)
T6 sequence: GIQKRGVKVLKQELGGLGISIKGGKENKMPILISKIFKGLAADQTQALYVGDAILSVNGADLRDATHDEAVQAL

[7] = molecular target: T7, GST-TIAM1 PDZ domain fusion protein (Homo sapiens (Human), UniProt Q13009 845-931)
T7 construct: also called TLAM1; T-lymphoma invasion and metastasis inducing protein 1; not shown: glutathione S-transferase encoded by vector pGEX-3X (Pharmacia)

[8] = molecular target: T8, TAX-IP33 PDZ-GST fusion protein (Homo sapiens (Human), UniProt O14910 103-193)
T8 construct: Order of GST and PDZ part and limits not seen in the excerpts
T8 sequence: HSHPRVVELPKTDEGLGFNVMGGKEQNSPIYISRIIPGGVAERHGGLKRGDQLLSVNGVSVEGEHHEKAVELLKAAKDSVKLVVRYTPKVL

[9] = molecular target: T9, GST-DLG5 (p-dlg) PDZ domain fusion protein (Human, UniProt Q8TDM6 1343-1583)
T9 construct: also called Human discs large protein p-dlg; not shown: glutathione S-transferase encoded by vector pGEX-3X (Pharmacia)
T9 sequence: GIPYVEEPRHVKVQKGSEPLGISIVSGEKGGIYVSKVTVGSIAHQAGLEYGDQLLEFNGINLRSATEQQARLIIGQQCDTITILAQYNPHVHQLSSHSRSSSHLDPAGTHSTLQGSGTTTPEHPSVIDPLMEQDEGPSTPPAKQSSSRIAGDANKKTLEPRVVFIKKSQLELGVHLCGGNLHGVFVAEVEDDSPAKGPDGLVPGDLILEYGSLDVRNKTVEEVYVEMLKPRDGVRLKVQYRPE

[10] = molecular target: T10, GST-AF6 PDZ domain fusion protein (Homo sapiens (Human), UniProt P55196 1001-1093)
T10 construct: also called af-6 protein; not shown: glutathione S-transferase encoded by vector pGEX-3X (Pharmacia)
T10 sequence: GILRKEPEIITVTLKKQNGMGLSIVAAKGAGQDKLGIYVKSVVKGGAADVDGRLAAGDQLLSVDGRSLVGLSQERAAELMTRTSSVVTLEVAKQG

[11] = molecular target: T11, K316 PDZ-GST fusion protein (Homo sapiens (Human), UniProt Q14CM0 72-159)
T11 construct: Order of GST and PDZ part and limits not seen in the excerpts

[12] = molecular target: T12, SP short PDZ-GST fusion protein (Homo sapiens (Human), UniProt O43464 350-435)
T12 construct: The label SP short is not explained in the excerpts
T12 sequence: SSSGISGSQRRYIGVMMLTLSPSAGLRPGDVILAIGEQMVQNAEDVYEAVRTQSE

[13] = molecular target: T13, GST-KIAA0303 PDZ domain fusion protein (Homo sapiens (Human), UniProt O15021 1138-1228)
T13 construct: also called K303; not shown: glutathione S-transferase encoded by vector pGEX-3X (Pharmacia)
T13 sequence: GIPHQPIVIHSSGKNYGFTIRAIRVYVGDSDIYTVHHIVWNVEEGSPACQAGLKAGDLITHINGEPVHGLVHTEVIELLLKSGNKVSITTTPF

[14] = molecular target: T14, GST-DVL1 PDZ domain fusion protein (human, UniProt O14640 247-339)
T14 construct: also called human dishevelled segment polarity protein homolog; not shown: glutathione S-transferase encoded by vector pGEX-3X (Pharmacia)
T14 sequence: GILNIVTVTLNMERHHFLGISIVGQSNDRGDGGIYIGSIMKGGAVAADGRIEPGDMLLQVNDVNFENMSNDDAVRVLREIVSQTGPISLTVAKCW

[15] = molecular target: T15, GST-TAX-IP2 PDZ domain fusion protein (human, UniProt O14908 129-216)
T15 construct: also called TAX-1P2; TAX2; not shown: glutathione S-transferase encoded by vector pGEX-3X (Pharmacia)
T15 chain: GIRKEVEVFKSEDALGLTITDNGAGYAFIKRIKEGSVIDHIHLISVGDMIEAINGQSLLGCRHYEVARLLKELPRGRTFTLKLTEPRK

[16] = molecular target: T16, PICK1 PDZ-GST fusion protein (Bos taurus (Bovine), UniProt Q2T9M1 17-105)
T16 construct: Order of GST and PDZ part and limits not seen in the excerpts

Measured: binding result

T11 sequence (Q14CM0 72-159 limits assumed): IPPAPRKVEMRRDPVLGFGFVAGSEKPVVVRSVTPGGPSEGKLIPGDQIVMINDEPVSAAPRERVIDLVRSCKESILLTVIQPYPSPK
T7 sequence (Q13009 other isoform, or with tags, fused parts or gaps): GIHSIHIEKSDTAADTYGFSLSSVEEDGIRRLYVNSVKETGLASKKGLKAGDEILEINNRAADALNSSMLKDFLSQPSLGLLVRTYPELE
T16 sequence (Q2T9M1 other isoform, or with tags, fused parts or gaps limits assumed): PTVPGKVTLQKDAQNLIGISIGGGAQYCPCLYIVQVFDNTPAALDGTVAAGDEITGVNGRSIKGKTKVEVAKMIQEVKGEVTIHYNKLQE

B1: CD148 C-terminal peptide AA19L, biotinylated (peptide)
peptide: Biotin-ENLAPVTTFGKTNGYIA
notes: also called CD148 (DEP-1)
no binding: [1] | [2] | [3] | [4] | [5] | [6] | [7] | [8] | [9] | [10] | [11] | [12] | [13] | [14] | [15] | [16]

B2: CD114 (G-CSFR) C-terminal peptide AA27L (peptide)
peptide: Biotin-LNFPLLQGIRVHGMEALGSF
notes: Only the last four residues are seen in the excerpts
no binding: [1] | [2] | [3] | [4] | [5] | [6] | [7] | [8] | [9] | [10] | [11] | [12] | [13] | [14] | [15] | [16]

B3: Clasp-1 C-terminal peptide AA1L, biotinylated (peptide)
peptide: Biotin-ISKATPALPTVSISSSAEV
notes: also called AA1L-R
no binding: [1] | [2] | [3] | [4] | [5] | [6] | [7] | [8] | [9] | [10] | [11] | [12] | [13] | [14] | [15] | [16]

B4: Mannose receptor C-terminal peptide AA31L (peptide)
peptide: Biotin-GTSDMKDLVGNIEQNEHSVI
notes: as for B2
no binding: [1] | [2] | [3] | [4] | [5] | [6] | [7] | [8] | [9] | [10] | [11] | [12] | [13] | [14] | [15] | [16]
